Laboratory results taken from article PMC6135694, “A high-throughput fluorescence polarization assay for discovering inhibitors targeting the DNA-binding domain of signal transducer and activator of transcription 3 (STAT3)”.

B1: unlabelled consensus DNA 12-mer (dsDNA)
DNA 1: ATTTCCCGTAAA
DNA 2: TTTACGGGAAAT
B2: unlabelled non-consensus DNA 12-mer (dsDNA)
DNA 1: GTACCATGGTAC
DNA 2: GTACCATGGTAC

Target: STAT3 127-688 (UniProt P40763 127-688)
Experiment: competition (fluorescence polarization); competitor vs 20 nM Bodipy-DNA N1, 480 nM protein; 24 hr, 4 C; FP: 20 nM Bodipy-DNA, 480 nM STAT3 127-688, 25 mM Tris pH 8.5 (protein purification and DNA annealing buffer; full assay buffer not in material), NaCl < 200 uM
Settings: protein: recombinant, blunt

STAT3 127-688, sequence (P40763 127-688): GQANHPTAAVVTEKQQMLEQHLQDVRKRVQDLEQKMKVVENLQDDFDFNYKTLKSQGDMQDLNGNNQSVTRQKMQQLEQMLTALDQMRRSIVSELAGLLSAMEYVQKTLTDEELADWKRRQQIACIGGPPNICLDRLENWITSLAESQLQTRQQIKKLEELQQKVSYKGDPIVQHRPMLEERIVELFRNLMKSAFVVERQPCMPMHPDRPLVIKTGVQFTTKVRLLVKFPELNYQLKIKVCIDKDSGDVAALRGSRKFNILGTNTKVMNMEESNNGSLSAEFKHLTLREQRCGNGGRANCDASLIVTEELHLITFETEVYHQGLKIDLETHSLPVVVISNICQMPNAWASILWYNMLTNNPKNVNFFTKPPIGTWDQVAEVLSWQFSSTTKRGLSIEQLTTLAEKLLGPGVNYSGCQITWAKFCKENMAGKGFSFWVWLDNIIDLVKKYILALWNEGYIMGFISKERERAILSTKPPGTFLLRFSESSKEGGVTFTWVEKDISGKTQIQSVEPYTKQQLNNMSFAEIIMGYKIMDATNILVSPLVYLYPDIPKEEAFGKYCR

| Binder | IC50 | IC50 (self-complementary, 2 copies of strand) |
| --- | --- | --- |
| B1 | 300 ± 200 nM |  |
| B2 |  | 2300 ± 660 nM |
